The values below come from patent publication US20230399393A1, “METHODS TO EXTEND HEALTH-SPAN AND TREAT AGE-RELATED DISEASES” (National University of Singapore, priority 2020, published 2023).

One assay has as its system AML12. The assay can be described thus: Senescence reversal experiment, qPCR at day 10. It counts as cell-based, mouse. To be noted: 2 μg/ml for 72 hours after 7 days senescence induction; vs IgG. As to the method: FIG. 25. (25A) Schematic of senescence reversal experiment for data shown in B-D. Senescent AML12 were generated for 7 days as described above. IgG/X203/X209 (2 μg/ml) was added into the cultures at the end of senescence induction period for 72 hours; cells were harvested at day 10 for RNA extraction and subsequent qPCR experiments. Relative mRNA expression of (25B) Cdkn1a (p21), (25C) Il1β, and (25D) Il11.
Briefly, senescent AML12 were generated for 7 days as described above, but IgG/X203/X209 (2 μg/ml) was added into the cultures at the end of senescence induction period for 72 hours.
Senescent AML12 were generated by treating the cells with a sub-lethal concentration of H2O2 (0.75 mM) for 1 hour, followed by 23 hours recovery per day, for 7 days as described (Tripathi, Yen, and Singh 2020, STAR Protocols 1 (2): 100064). For prevention study, AML12 cells were treated with 2 ug/ml of either IgG or X209 during the recovery period of the senescence induction stage (from day 1 to day 7); cells were harvested for total RNA collection at day 10. For reversal study, senescence was first induced for seven days followed by 2 ug/ml of IgG, X203, or X209 treatment for 3 days; cells were harvested for total RNA collection at day 10.
Total RNA was extracted from AML12 or snap-frozen tissues using Trizol (Invitrogen) and RNeasy Mini Kit (Qiagen). […] using iScript cDNA Synthesis Kit (Biorad). Gene expression analysis was performed on duplicate samples with either TaqMan (Applied Biosystems) for Il11 (Mm00434162) or fast SYBR green (Qiagen) technology using StepOnePlus™ (Applied Biosystem) for Ccl2, Ccl5, Gapdh, Il1β, Il6, Il8, p16, p21, Tnfα, over 40 cycles. Expression data were normalized to GAPDH mRNA expression and fold change was calculated using 2^−ΔΔct method.

The test system of assay [1] is C57Bl/6J mice. The assay can be described thus: Mouse Frailty Index in aged mice treated from 55 to 110 weeks of age. To be noted: mice aged 110 weeks; 40 mg/kg IP every 3 weeks from age 55 weeks; vs isotype control IgG. Format: in vivo. On the procedure:
C57Bl/6J mice aged 46 weeks were obtained from the Jackson Laboratory, and randomised on a 1:1 basis to receive either X203 or an isotype control IgG antibody.
From age 55 weeks (human equivalent of ˜45 years old (i.e. middle age)) to age 110 weeks (human equivalent of ˜75 years old), mice were administered with 40 mg/kg of either X203 or isotype-matched control IgG via intra-peritoneal injection every 3 weeks.
At age 110 weeks, frailty was assessed using the Mouse Frailty Index described in Rizzo et al. Curr Protoc Mouse Biol. (2018) 8(2):e45, which is hereby incorporated by reference in its entirety. In this protocol, mice are individually observed and evaluated for the absence or presence and severity of 27 different characteristics each scored as 0, 0.5, or 1 based on level of severity. A frailty index score is calculated as the cumulative score of all measures. As a separate measurement of frailty, core body temperature was recorded, as core body temperature is known to decrease with increasing frailty in mice (Reynolds et al., Mechanisms of Ageing and Development (1985) 30(2):143-52). Data were analysed by 2-way ANOVA.
End-point frailty scoring was performed 2 days prior to sacrifice using the accepted frailty scoring system (Sukoff Rizzo et al. 2018, Current Protocols in Mouse Biology 8 (2): e45.)

Assay [2] relates to Primary human cardiac fibroblasts. Nature of the assay: IL11 or TGFβ1 stimulated fibroblasts with X203, X209 or IgG, western blot. As to conditions: IL11/TGFβ1 10 ng/ml, 24 hours; antibody 2 μg/ml. Format: cell-based. On the procedure:
FIG. 19. Western blot image showing the levels of p-ERK, ERK, p-P90RSK, P90RSK, p-LKB1, LKB1, p-AMPK, AMPK, p-mTOR, mTOR, p-p70S6K, p70S6K, p-S6RP, S6RP, SMA, and GAPDH in primary human cardiac fibroblasts that are unstimulated (BL) or stimulated for 24 hours with either IL11 or TGFβ1 in the presence of X203, X209, or IgG (11E10) isotype control. IL11/TGFβ1 (10 ng/ml), IgG/X203/X209 (2 μg/ml).
Primary human cardiac fibroblasts were stimulated with IL11 or TGFβ1, or unstimulated (BL).

Assay [3] concerns C57Bl/6J mice. Nature of the assay: Ageing pathways in tissues of old mice receiving X203, western blot and densitometry. Format: in vivo, mouse. As to conditions: 110-week old mice. As to the method: The same results are observed in the gastrocnemii (FIGS. 45 and 46), solei (FIGS. 47 and 48) and abdominal fat (FIGS. 49 and 50) of old mice treated with X203.
Male and female C57Bl/6J mice aged 46 weeks were purchased from the Jackson Laboratory. Mice were randomised on a 1:1 basis to receive either 40 mg/kg of X203 or an isotype control IgG antibody (11E10), every 3 weeks (IP), starting from 55 weeks of age. Mice were sacrificed at 110 weeks of age for blood and tissues collection. 12 weeks old male and female C57Bl/6J mice that were used as control were purchased from Invivos (Singapore).
Western blots were carried out on total protein extracts from primary human cardiac fibroblasts (HCFs), hepatic stellate cells (HSCs), hepatocytes, livers, gastrocnemii, solei, and abdominal fats. Cell or tissue lysates were homogenized in RIPA Lysis and Extraction Buffer (89901, Thermo Scientific) containing protease and phosphatase inhibitors (Roche). Protein lysates were separated by SDS-PAGE, transferred to PVDF membranes, blocked for 1 h with 3% BSA, and incubated overnight with either phospho-ACC (11818, CST), ACC (3676, CST), phospho-AMPK (2535, CST), AMPK (5832, CST), phospho-ERK1/2 (4370, CST), ERK1/2 (4695, CST), GAPDH (2118, CST), phospho-LKB1 S428 (3482, CST), phospho-LKB1 (S325), LKB1 (3047, CST), (phospho-mTOR (2971, CST), mTOR (2972, CST), p16 (ab232402, Abcam), p21 (64016, CST), phospho-p70S6K (9205, CST), p70S6K (2708, CST), phospho-S6 ribosomal protein (4858, CST), or S6 ribosomal protein (2217, CST). All primary antibodies are diluted 1:1000 in 1% BSA. Protein bands were visualized using the ECL detection system (Pierce) with anti-rabbit HRP (1:2000 in 3% BSA, 7074, CST).

[4] abbreviates: compared with the liver results.

B1: X203: mouse anti-mouse IL-11 IgG antagonist antibody; VH SEQ ID NO:22, VL SEQ ID NO:23 (antibody, V domains shown)
VH: EVQLQQSGPELVKPGASVKIPCKASGYTFTDYNMDWVKQSHGKSLEWIGDINPHNGGPIYNQKFTGKATLTVDKSSSTAYMELRSLTSEDTAVYYCARGELGHWYFDVWGTGTTVTVSS
VL: DIVLTQSPASLAVSLGQRATISCRASKSVSTSGYSYIHWYQQKPGQPPKLLIYLASNLDSGVPARFSGSGSGTDFTLNIHPVEEEDAATYYCQHSRDLPPTFGGGTKLEIK
Consider B1, for which, in the assay on AML12, the “inflammation marker IL-1 b” value is reported as “significantly reduce”, the “inflammation marker IL-11” value is on record as “significantly reduce” and the “senescence marker p21” value is given as “significantly reduce”. For the same molecule, in the assay on C57Bl/6J mice [1], the frailty index entry is recorded as “significant reduction”. Besides, the “level of phosphorylation of markers ERK, p90RSK, LKB1, mTOR, p70S6K and S6RP” value in assay [2] is “significantly reduce”. Besides, in the assay with C57Bl/6J mice [3] (setting [4]), the “ERK/LKB1/mTORC1 activity, AMPK activity, p16 and p21 expression in gastrocnemii” value was “same results”; the “ERK/LKB1/mTORC1 activity, AMPK activity, p16 and p21 expression in solei” value is on record as “same results”. Besides, in the assay with C57Bl/6J mice [3] (vs IgG control), the “AMPK activity in livers” value was “more”; the “ERK/LKB1/mTORC1 activity in livers” value is listed as “less”; the “expression of key senescence markers (p16 and p21) in livers” value was “less”.
